This test concerns the target mouse BRCA1 protein (mouse) (UniProt P48754). In words: cell-based or functional assay.
UniProt P48754, sequence (P48754 whole entry): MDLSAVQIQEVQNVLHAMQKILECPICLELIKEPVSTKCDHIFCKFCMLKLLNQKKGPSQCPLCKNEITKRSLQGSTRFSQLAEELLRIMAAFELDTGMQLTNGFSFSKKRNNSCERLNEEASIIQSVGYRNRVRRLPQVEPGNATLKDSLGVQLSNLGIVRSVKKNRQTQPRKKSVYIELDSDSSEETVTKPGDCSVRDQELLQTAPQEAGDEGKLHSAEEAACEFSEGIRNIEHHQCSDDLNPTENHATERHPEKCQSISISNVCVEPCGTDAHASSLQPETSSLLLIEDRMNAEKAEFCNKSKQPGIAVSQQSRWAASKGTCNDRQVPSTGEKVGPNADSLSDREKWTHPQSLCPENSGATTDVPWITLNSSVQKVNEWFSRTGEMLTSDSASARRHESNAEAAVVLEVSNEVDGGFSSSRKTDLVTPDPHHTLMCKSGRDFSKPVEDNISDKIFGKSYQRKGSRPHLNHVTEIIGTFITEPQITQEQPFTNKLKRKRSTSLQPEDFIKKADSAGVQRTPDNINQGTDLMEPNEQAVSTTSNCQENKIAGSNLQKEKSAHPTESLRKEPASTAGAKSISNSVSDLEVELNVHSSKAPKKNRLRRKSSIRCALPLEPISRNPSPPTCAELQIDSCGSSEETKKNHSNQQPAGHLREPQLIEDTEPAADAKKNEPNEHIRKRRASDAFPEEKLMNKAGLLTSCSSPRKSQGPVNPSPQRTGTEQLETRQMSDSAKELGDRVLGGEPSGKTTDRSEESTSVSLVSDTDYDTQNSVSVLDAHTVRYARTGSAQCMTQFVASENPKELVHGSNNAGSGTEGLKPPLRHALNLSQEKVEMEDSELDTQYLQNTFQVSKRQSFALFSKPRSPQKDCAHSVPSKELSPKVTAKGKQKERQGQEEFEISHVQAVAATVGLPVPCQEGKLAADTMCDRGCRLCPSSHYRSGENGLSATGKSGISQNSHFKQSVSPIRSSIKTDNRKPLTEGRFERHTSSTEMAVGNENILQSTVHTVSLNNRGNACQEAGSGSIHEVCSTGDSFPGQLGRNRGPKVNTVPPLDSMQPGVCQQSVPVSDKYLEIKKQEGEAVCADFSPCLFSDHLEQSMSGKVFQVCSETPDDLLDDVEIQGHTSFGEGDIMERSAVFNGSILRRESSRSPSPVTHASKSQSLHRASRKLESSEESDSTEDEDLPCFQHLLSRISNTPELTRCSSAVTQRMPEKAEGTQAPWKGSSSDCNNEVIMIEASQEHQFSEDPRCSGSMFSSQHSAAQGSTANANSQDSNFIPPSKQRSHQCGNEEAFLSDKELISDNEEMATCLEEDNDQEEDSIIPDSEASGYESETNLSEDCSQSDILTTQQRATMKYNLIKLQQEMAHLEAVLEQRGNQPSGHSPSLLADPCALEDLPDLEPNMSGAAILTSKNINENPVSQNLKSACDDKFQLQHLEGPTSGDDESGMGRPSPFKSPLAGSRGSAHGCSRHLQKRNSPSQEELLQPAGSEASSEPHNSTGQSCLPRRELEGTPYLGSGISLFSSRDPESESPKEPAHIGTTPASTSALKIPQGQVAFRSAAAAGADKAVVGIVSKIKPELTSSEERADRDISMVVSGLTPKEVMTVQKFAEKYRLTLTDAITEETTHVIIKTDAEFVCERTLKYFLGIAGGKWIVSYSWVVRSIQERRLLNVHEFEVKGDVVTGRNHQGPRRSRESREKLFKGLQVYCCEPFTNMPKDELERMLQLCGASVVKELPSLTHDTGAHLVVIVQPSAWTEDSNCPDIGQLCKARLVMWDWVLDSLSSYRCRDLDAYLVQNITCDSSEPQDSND

The substance “mouse FANCD2 protein (from UniProt Q80V62 1-1450)” came in with an anti-FANCD2 foci co-localized with regions of intense anti-BRCA1 staining (20 pachytene nuclei of mouse spermatocytes) of 65%.

Source of the values: patent EP1451343B1.
